# Reference: the DeepSol protein solubility set
# Experiment: soluble on expression in E. coli; label from the status in PepcDB or PDB records
row,Sequence,soluble on expression in E. coli
1,RTVAQNASETTVSYDTDTAVLSEADVLRIALSENATVKVADMDVRKQEYARRAARADLFPKVDLNGVYSHTLKKQVLYIDMPGFSSSEGIEMGRTHNTQGGVNVSMPLVSAQLWKSIAMTGEQLDLALEKARSSRIDLVAEVKKAYLSVLLAEDSYGVFKRSYDNALANYKNISDKFDRGLVAEYDKIRANVQVRNIEPNLLQAQNSVALALWQLKVLMSMEVETPIRLSGSLSDYKEQVYTGYFAADTLISNNSSLRQLDIQRRLAVSADKLNKYSFLPTLNLGGQYTYSLNSNDIKFWGEGQR,not soluble
2,RYLLRATTDDLYLVHDRQVAPFDGDLNDYYKWLTEQQKAERKEAQALQPVKDTANSAAAKKEQKRREAEFRKLTAPIRKTLTQLENKMDKLGVALAEAEEQLADNSLYEAENKAKLNEVLALQASSKSELEEVEMEWMSAQEELEQMELEFNQ,not soluble
3,RYRAHCDAIALCAPMFGIIIRLPDWMVRHILDWAEGHQRIREEYAIGTGRWRALPFAVNVLTHSRQRYRRNLRFYADEPRLQVGGPTWHWVREGMLAGDEVLANVEKDTAPTLLLQAEEERVVDNLMHDRYCELRAAAGHPCEGGKPLVIEGAYHEILFEKDAMRSVALNAIVEFFNRHT,not soluble
4,SAAAMAEQEGSKGSARNRGGVQRVEGKLRASVEKGDYYEAHQMYRTLFFRYMSQSKHIEARELMYSGALLFFSHSQQNSAADLSMLVLESLEKHEVKVTEELLENLAKLFSLMDPNSPERVAFVSRALKWSSGGSGKFGHQKLHQFLAITLWKEQNYYESRYHFLHSSDGEGCANMLVEYSSTRGYRSEVDMFVAQAVLQFLCLKNKTSASVVFTTYTQKHPSIERGPPFVQPLLNFIWFLLLAVEGGKLTVFTVLCEQYQPSLKRDPMYNEYLDRIGQLFFGLPPKQSSSYGGLLGNLLNSLMGSGEDDDVEDGQEDSSPIELD,soluble
5,SAAARATTPADGEEPAPEAEALAAARERSSRFLSGLELVKQGAEARVFRGHFQGRAAVIKHRFPKGYRHPALEARLGRRRTVQEARALLRCRRAGISAPVVFFVDYASNCLYMEEIEGSVTVRDYIQSTMETEKTPQGLSNLAKTIGQVLARMHDEDLIHGDLTTSNMLLKPPLEQLNIVLIDFGLSFISALPEDKGVDLYVLEKAFLSTHPNTETVFEAFLKSYSTSSKKARPVLKKLDEVRLRGRKRSMVG,soluble
6,SAARLLRGSLRVLGGHRAPRQLPAARCSHSGGEERLETPSAKKLTDIGIRRIFSPEHDIFRKSVRKFFQEEVIPHHSEWEKAGEVSREVWEKAGKQGLLGVNIAEHLGGIGGDLYSAAIVWEEQAYSNCSGPGFSIHSGIVMSYITNHGSEEQIKHFIPQMTAGKCIGAIAMTEPGAGSDLQGIKTNAKKDGSDWILNGSKVFISNGSLSDVVIVVAVTNHEAPSPAHGISLFLVENGMKGFIKGRKLHKMGLKAQDTAELFFEDIRLPASALLGEENKGFYYIMKELPQERLLIADVAISASEFMFEETRNYVKQRKAFGKTVAHLQTVQHKLAELKTHICVTRAFVDNCLQLHEAKRLDSATACMAKYWASELQNSVAYDCVQLHGGWGYMWEYPIAKAYVDARVQPIYGGTNEIMKELIAREIVFDK,soluble
7,SADKEKKKKESILDLSKYIDKTIRVKFQGGREASGILKGFDPLLNLVLDGTIEYMRDPDDQYKLTEDTRQLGLVVCRGTSVVLICPQDGMEAIPNPFIQQQDA,soluble
8,SAGAAPTTAFGQAVIGPPGSGKTTYCLGMSEFLRALGRRVAVVNLDPANEGLPYECAVDVGELVGLGDVMDALRLGPNGGLLYCMEYLEANLDWLRAKLDPLRGHYFLFDCPGQVELCTHHGALRSIFSQMAQWDLRLTAVHLVDSHYCTDPAKFISVLCTSLATMLHVELPHINLLSKMDLIEHYGKLAFNLDYYTEVLDLSYLLDHLASDPFFRHYRQLNEKLVRLIEDYSLVSFIPLNIQDKESIQRVLQAVDKANGYCFGAQEQRSLEAMMSAAMGADFHFSSTLGIQEKYLAPSNQSVEQEAMQL,not soluble
9,SAGPQQQPPYLHLAELTASQFLEIWKHFDADGNGYIEGKELENFFQELEKARKGSGMMSKSDNFGEKMKEFMQKYDKNSDGKIEMAELAQILPTEENFLLCFRQHVGSSTEFMEAWRKYDTDRSGYIEANELKGFLSDLLKKANRPYDEPKLQEYTQTILRMFDLNGDGKLGLSEMSRLLPVQENFLLKFQGMKLTSEEFNAIFTFYDKDRSGYIDEHELDALLKDLYEKNKKEMNIQQLTNYRKSVMSLAEAGKLYRKDLEIVLCSEPPM,soluble
10,SAGTQLFRFREEPGPGGNRAVLEVRVPQVLHVQYGMYVWPCAVVLAQYLWFHRRSLPGKAVLEVGAGVSLPGILAAKCGAKVILSDSSEFPHCLDICRQSCQMNNLPQVEVVGLTWGHISKDILSLPPQDIILGSDVFFEPEDFESILATVYFLMQKNPKVQFWSTYQVRSADWSLEGLLYKWDMKCVHIPLESFDADKEDIAESTLPGRHTVEMLIISFAKDSF,soluble
11,SANLCKRVVDLEKYIVKEAPPTVYYIPDFISEAEEEFLLQQVYRAPKPKWTQLSGRRLQNWGGLPNPKGMLAEKLPDWLLEYTEKISALGAFAGKTANHVLVNEYKPGEGIMPHEDGPLYHPTVTTITVGSHTLLDFYRPVCQAEPDAPQTEESRYMLSLLVQRKSLLILQDDMYKCYLHGIRGVCEDVLSEHVVNISSTGAQVGDTLPRSTRVSLTIRHVPKIIRANLFLGKK,soluble
12,SASAGGEDCESPAPEADRPHQRPFLIGVSGGTASGKSTVCEKIMELLGQNEVEQRQRKVVILSQDRFYKVLTAEQKAKALKGQYNFDHPDAFDNDLMHRTLKNIVEGKTVEVPTYDFVTHSRLPETTVVYPADVVLFEGILVFYSQEIRDMFHLRLFVDTDSDVRLSRRDKEVCRCDHPTRSGQYGCHQPDRAAHPGHSEW,soluble
13,SASSQGKNELKLADWMATLPESMHSIPLTNLAIPGSHDSFSFYIDEASPVGPEQPETVQNFVSVFGTVAKKLMRKWLATQTMNFTGQLGAGIRYFDLRISTKPRDPDNELYFAHGLFSAKVNEGLEEINAFLTDHHKEVVFLDFNHFYGMQKYHHEKLVQMLKDIYGNKMCPAIFAQEVSLKYLWEKDYQVLVFYHSPVALEVPFLWPGQMMPAPWANTTDPEKLIQFLQASITERRKKGSFFISQVVLTPKASTVVKGVASGLRETITERALPAMMQWVRTQKPGESGINIVTADFVELGDFISTVIKLNYVFDEGEANT,soluble
14,SASWLPETLFEIVGQGPAPSKDYYQLLITRTQIIFRWWKISLRSEYRSAKPGETKESHEDFLDNSHLQVQVAVVFGTKILDYVFNLCEGKFDYLERLSDRLLLKIICYLDLEDIASLSQTSSKFEKLCKSDLLWEQIVQSTCDTITPDMRALAKNMGWRQMFLTNNIQLQRQTRKKKQRQENQAEKLA,soluble
15,SDEFDALRIKWATLLTGGPALDPADSDIAARTDKLAQDANDYWEDMDLSSSRTYIWYALRGNGTSDNVNAVYERLRTMALAATTVGSSLYGNADLKEDILDALDWLYVNSYNSTRSRSAYNWWHWQLGIPMSLNDIAVLLYDDISAARMATYMDTIDYFTPSIGLTGANRAWQAIVVGVRAVIVKDAVKLAAARNGLSGTGIFPYATGGDGFYADGSFVQHTTFAYTGGYGSSVLETTANLMYLLSGSTWSVSDPNQSNVWQWIYEAYRPLLYKGAMMDMVRGREISRSYAQDHAVGHGIVASIVRLAQFAPAPHAAAFKQIAKRVIQEDTFSSFYGDVSTDTIRLAKAIVDDPSIAPAAAPNLYKQYAAMDRAVLQRPGFALGLALYSTRISSYESINSENGRGWYTGAGATYLYNQDLAQYSEDYWPTVDAYRIPGTTVASGTPIASGTGTSSWTGGVSLAGQYGASGMDLSYGAYNLSARKSWFMFDDEIVALGSGISSTAGIPIETVVDNRKLNGAGDNAWTANGAALSTGLGVAQTLTGVNWVHLAGNTADGSDIGYYFPGGATLQTKREARTGTWKQINNRPATPSTAVTRNYETMWIDHGTNPSGASYGYVLLPNKTSAQVGAYAADPAIEIVVNTSGVQSVKEKTLGLVGANFWTDTTQTADLITSNKKASVMTREIADERLEASVSDPTQANNGTIAIELARSAEGYSADPGITVTQLAPTIKFTVNVNGAKGKSFHASFQLG,soluble
16,SDENNGLLLLELNPPNPWDLQPRSPEELAFGEVQITYLTHACMDLKLGDKRMVFDPWLIGPAFARGWWLLHEPPSDWLERLCQADLIYISHLHSDHLSYPTLKKLAGRRPDIPIYVGNTERPVFWNLNQSGVQLTNINVVPFGIWQQVDKNLRFMILMDGVHPEMDTCIIVEYKGHKILNIVDCTRPNGGRLPMKVALMMSDFAGGASGFPMTFSGGKFTEEWKAQFIKTERKKLLNYKARLVKNLQPRIYCPFAGYFVESHPSDKYIKETNTKNDPNELNNLIKKNSDVITWTPRPGATLDLGRMLKDRTDSKGIIEPPEGTKIYKDSWDFEPYLEILNAALGDEIFLHSSWIKEYFTWAGFKDYNLVVRMIETDEDFNPFPGGYDYLVDFLDLSFPKERPQREHPYEEIHSRVDVIRHVVKNGLLWDELYIGFQTRLQRDPDIYHHLFWNHFQIKLPLTPPNWKSFLMCCEQNGPVILQECKTT,soluble
17,SDKDSQGLLDSSLMASGTASRSEDEESLAGQKRASSQALGTIPKRRSSSRFIKRKKFDDELVESSLAKSSTRVKGAGGVESGRCSGSEPSSSEKKKVSKAPSTPVPPSPAPTPGLTKRVKKSKQPLQVTKDLGRWKPADDLLLINAVLQTNDLTSVHLGVKFSCRFTLREVQERWYALLYDPVISKLACQAMRQLHPEAIAAIQSKALFSKAEEQLLSKVGSSSQPTLETFQDLLHTHPDAFYLARTAKALQAHWQLMKQYYLLEDQTVQPLPKGDQVLNFSDAEDLIDDSKLKDMRDEVLEHELTVADRRQKREIRQLEQELHKWQVLVDSITGMGSPDFDNQTLAVLRGRMVRYLMRSREITLGRATKDNQIDVDLSLEGPAWKISRKQGVIKLKNNGDFFIANEGRRPIYIDGRPVLCGSKWRLSNNSVVEIASLRFVFLINQDLIALIRAEAAKITPQ,soluble
18,SDLFTDGDIFQDIVDAACKRRVPVYIILDEGGVKYFLEMCQGLELADFRIRNIRVRSVTGIGFYMPMGKIKGTLSSKFLMVDGDKVATGSFSFTWSSSYVDRNLLLLLTGQNMEPFDIEFRELYAISEEVNLHQHLGLAGRIGLNYSSTVARKLINPKYALVAGTRRPPGEMMRWAARQQREAGGNVEGQEEGSGGGESARRLESFLNDLVTVEQILPTVEPISPRLQRPTNGRPVSHAHTDAKHRSREALPQNGKGEAANGEATPAKEGKRFSSRLFSRRVKRPAVPSSMASSPSTETFADVEFPLGKRHNEGSNANISGKGITKASNCVIS,soluble
19,SDQEEGLKALDNIVTQFNAYEDFLDSQITTVDLYYLEDETLARQLVELGYRGTGERVKREDFEARKAAIEIARLAERAQQKTLTSAGKDLQDNFLTALAMREEDNRSGKLSSVIFIRDRNSHGQEISGYIDYAHRLKTEDFEVYFTGKKRLLPRPTDISFYNWDADIAVSNSSPNYQVIADNPEGLLFRYKRDRKILNVDPKAQPGDNSTRITILTELYIQAVIFDHISRRKT,soluble
20,SEESRESPAEHGYYMPAEWDSHAQTWIGWPERQDNWRHNALPAQRVFAGVAKAISKFEPVTVCASPAQWENARKQLPEDIRVVEMSMNDSWFRDSGPTFIVRKRPVKLSSLNRNIAGIDWNFNAWGGANDGCYNDWSHDLLVSRKILALERIPRFQHSMILEGGSIHVDGEGTCLVTEECLLNKNRNPHMSKEQIEEELKKYLGVQSFIWLPRGLYGDEDTNGHIDNMCCFARPGVVLLSWTDDETDPQYERSVEALSVLSNSIDARGRKIQVIKLYIPEPLYMTEEESSGITQDGEAIPRLAGTRLAASYVNFYIANGGIIAPQFGDPIRDKEAIRVLSDTFPHHSVVGIENAREIVLAGGNIHCITQQQPAEPTSVAENGH,soluble
21,SEEYHRHCDEVGFNAEEAHNIVKECVDGVLGGEDYNHNNINQWTASIVEQSLTHLVKLGKAYKYIVTCAVVQKSAYGFHTASSCFWDTTSDGTCTVRWENRTMNCIVNVFAIAIVL,soluble
